These results are taken from patent publication USRE47150 (Bayer, dated 2018).

Where a chain is given by its changes, count along the chain named. In names and notes the source's numbering stands.

First the molecules themselves.
B1: 4B7 HC N32D+D62R+H103D+H107M+Y112D/LC S32R (Fab, V domains shown)
VH: QVQLQQSGPGLVKPSQTLSLTCAISGDSVSSDSAAWSWIRQSPGRGLEWLGIIYKRSKWYNRYAVSVKSRITINPDTSKNQFSLQLNSVTPEDTAVYYCARWDSDKMWGFDDWGQGTLVTVSS
VL: DIVMTQSPLSLPVTPGEPASISCRSSQSLVFRDGNTYLNWYLQKPGQSPQLLIYKGSNRASGVPDRFSGSGSGTDFTLKISRVEAEDVGVYYCQQYDSYPLTFGQGTKVEIKR
B2: 4B7 HC N32D+D62R+H103D/LC F31I+D33R (Fab, V domains shown)
VH: B1 VH with M107H, D112Y
VL: B1 VL with F31I, R32S, D33R
B3: 4B7 HC N32D+D62R+H107M+Y112D/LC F31M+S32L+D33R+N35I+D97T (Fab, V domains shown)
VH: B1 VH with D103H
VL: B1 VL with F31M, R32L, D33R, N35I, D97T
B4: 4B7 HC N32D+D62R+Y112D/LC F31I+D33F+N35I+D97T (Fab, V domains shown)
VH: B1 VH with D103H, M107H
VL: B1 VL with F31I, R32S, D33F, N35I, D97T
B5: 4B7 HC N32D+D62R+H107M+Y112D/LC D33R+N35T (Fab, V domains shown)
VH: B1 VH with D103H
VL: B1 VL with R32S, D33R, N35T
B6: 4B7 HC N32D+D62R+H107M+Y112D/LC F31M+S32R+D33F+D97T (Fab, V domains shown)
VH: B1 VH with D103H
VL: B1 VL with F31M, D33F, D97T
B7: 4B7 HC N32D+D62R+H107M+Y112D/LC F31M+S32R+D33F+N35I (Fab, V domains shown)
VH: B1 VH with D103H
VL: B1 VL with F31M, D33F, N35I
B8: 4B7 HC N32D+D62R+H107M+Y112D/LC F31I+N35I (Fab, V domains shown)
VH: B1 VH with D103H
VL: B1 VL with F31I, R32S, N35I
B9: 4B7 HC N32D+D62R+H107M+Y112D/LC D33R+N35I+D97T (Fab, V domains shown)
VH: B1 VH with D103H
VL: B1 VL with R32S, D33R, N35I, D97T
B10: 4B7 HC N32D+D62R+H107M+Y112D/LC F31I+D33R (Fab, V domains shown)
VH: B1 VH with D103H
VL: B1 VL with F31I, R32S, D33R
B11: 4B7 HC N32D+D62R+H107M+Y112D/LC F31I+S32R+N35I+D97T (Fab, V domains shown)
VH: B1 VH with D103H
VL: B1 VL with F31I, N35I, D97T
B12: 4B7 HC N32D+D62R+H107M+Y112D/LC S32R+N35T (Fab, V domains shown)
VH: B1 VH with D103H
VL: B1 VL with N35T
B13: 4B7 HC N32D+D62R+H107M+Y112D/LC F31M+S32R+D33R (Fab, V domains shown)
VH: B1 VH with D103H
VL: B1 VL with F31M, D33R
B14: 4B7 HC N32D+D62R+H107M+Y112D/LC F31M+S32R+D33R+N35I+D97T (Fab, V domains shown)
VH: B1 VH with D103H
VL: B1 VL with F31M, D33R, N35I, D97T
B15: 4B7 HC N32D+D62R+H103D+H107M+Y112D/LC S32R+N35T (Fab, V domains shown)
VH: B1 VH
VL: B1 VL with N35T
B16: 4B7 HC N32D+D62R+Y112D/LC D33F+N35I+D97T (Fab, V domains shown)
VH: B1 VH with D103H, M107H
VL: B1 VL with R32S, D33F, N35I, D97T
B17: 4B7 HC N32D+D62R+H107M+Y112D/LC D33R (Fab, V domains shown)
VH: B1 VH with D103H
VL: B1 VL with R32S, D33R
B18: 4B7 HC N32D+D62R+H107M+Y112D/LC F31M+S32R+D33R+N35T (Fab, V domains shown)
VH: B1 VH with D103H
VL: B1 VL with F31M, D33R, N35T
B19: 4B7 HC N32D+D62R+H107M+Y112D/LC F31M+D33R+N35I (Fab, V domains shown)
VH: B1 VH with D103H
VL: B1 VL with F31M, R32S, D33R, N35I
B20: 4B7 HC N32D+D62R+H107M+Y112D/LC S32R+D33F+N35T (Fab, V domains shown)
VH: B1 VH with D103H
VL: B1 VL with D33F, N35T
B21: 4B7 HC N32D+D62R+H107M+Y112D/LC F31I+S32R+D33F+N35I+D97T (Fab, V domains shown)
VH: B1 VH with D103H
VL: B1 VL with F31I, D33F, N35I, D97T
B22: 4B7 HC N32D+D62R+H107M+Y112D/LC F31M+D33R (Fab, V domains shown)
VH: B1 VH with D103H
VL: B1 VL with F31M, R32S, D33R
B23: 4B7 HC N32D+D62R+Y112D/LC M4I+S32R+D33F+N35I+D97T (Fab, V domains shown)
VH: B1 VH with D103H, M107H
VL: B1 VL with M4I, D33F, N35I, D97T
B24: 4B7 HC N32D+D62R+Y112D/LC F31H+S32R+D33F+N35I+D97T (Fab, V domains shown)
VH: B1 VH with D103H, M107H
VL: B1 VL with F31H, D33F, N35I, D97T
B25: 4B7 HC N32D+D62R+H107M+Y112D/LC S32R+N35T+D97T (Fab, V domains shown)
VH: B1 VH with D103H
VL: B1 VL with N35T, D97T
B26: 4B7 HC N32D+D62R+H107M+Y112D/LC F31M+D33F+N35T (Fab, V domains shown)
VH: B1 VH with D103H
VL: B1 VL with F31M, R32S, D33F, N35T
B27: 4B7 HC N32D+D62R+H107M+Y112D/LC F31I+D33R+N35I (Fab, V domains shown)
VH: B1 VH with D103H
VL: B1 VL with F31I, R32S, D33R, N35I
B28: 4B7 HC N32D+D62R+Y112D/LC D33R+N35I (Fab, V domains shown)
VH: B1 VH with D103H, M107H
VL: B1 VL with R32S, D33R, N35I
B29: 4B7 HC N32D+D62R+H107M/LC S32R+D33R+N35I (Fab, V domains shown)
VH: B1 VH with D103H, D112Y
VL: B1 VL with D33R, N35I
B30: 4B7 HC N32D+D62R+H107M+Y112D/LC D33F+N35T+Y37F (Fab, V domains shown)
VH: B1 VH with D103H
VL: B1 VL with R32S, D33F, N35T, Y37F
B31: 4B7 HC N32D+D62R+Y112D/LC F31M+S32R+D33R+N35I (Fab, V domains shown)
VH: B1 VH with D103H, M107H
VL: B1 VL with F31M, D33R, N35I
B32: 4B7 HC N32D+D62R+H107M+Y112D/LC F31M+D33F+N35I (Fab, V domains shown)
VH: B1 VH with D103H
VL: B1 VL with F31M, R32S, D33F, N35I
B33: 4B7 HC N32D+D62R+H107M+Y112D/LC F31I+S32R+D33F+N35T (Fab, V domains shown)
VH: B1 VH with D103H
VL: B1 VL with F31I, D33F, N35T
B34: 4B7 HC N32D+D62R+Y112D/LC F31Y+S32R+D33F+N35I+D97T (Fab, V domains shown)
VH: B1 VH with D103H, M107H
VL: B1 VL with F31Y, D33F, N35I, D97T

The first assay has as its target T1, human tissue factor pathway inhibitor (TFPI) (human, UniProt P10646 29-304, limits assumed).
T1 construct: bought; also called hTFPI; human TFPI
T1 sequence (looked up): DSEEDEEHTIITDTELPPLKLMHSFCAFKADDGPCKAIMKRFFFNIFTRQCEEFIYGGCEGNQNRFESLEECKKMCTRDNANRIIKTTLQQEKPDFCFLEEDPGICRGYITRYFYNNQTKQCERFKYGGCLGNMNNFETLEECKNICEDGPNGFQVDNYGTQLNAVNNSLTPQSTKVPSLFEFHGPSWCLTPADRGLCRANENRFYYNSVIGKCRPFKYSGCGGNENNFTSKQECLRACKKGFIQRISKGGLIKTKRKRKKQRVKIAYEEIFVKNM
The assay can be described thus: competitive ELISA. (ELISA stands for enzyme-linked immunosorbent assay.)
The molecule B1 showed a variant/HC_D62R of 17.7 ratio.
Still for that read-out and setting: with B2 the figure was 13.6 ratio.
Same read-out and setting: in the case of B3 it was 32.2 ratio; in that of B4, 23.3 ratio.
In turn, B5 had a variant/HC_D62R of 28.2 ratio.
The molecule B6 came in with a variant/HC_D62R of 21.9 ratio.
Take B7: the variant/HC_D62R was 27 ratio.
Molecule B8 displayed a variant/HC_D62R of 28.8 ratio.
Turning to B9, the variant/HC_D62R was 29.1 ratio.
B10 yielded a variant/HC_D62R of 30.1 ratio.
On the same count and under the same terms, with B11 the figure was 18.2 ratio.
Molecule B12 had a variant/HC_D62R of 25.3 ratio.
Turning to B13, the variant/HC_D62R worked out at 18.6 ratio.
The same measure, in the same setting: with B14 the figure was 16.9 ratio; with B15, 14 ratio.
In turn, B16 returned a variant/HC_D62R of 25.5 ratio.
Same read-out and setting: in the case of B17 it was 25.3 ratio; in that of B18, 17 ratio.
In turn, B19 gave a variant/HC_D62R of 21.3 ratio.
The same measure, in the same setting: in the case of B20 it was 29.2 ratio; in that of B21, 28.7 ratio.
B22: the variant/HC_D62R came to 26.9 ratio.
Consider B23, for which the variant/HC_D62R turned out to be 19.3 ratio.
In turn, B24 had a variant/HC_D62R of 22.1 ratio.
As for B25, the variant/HC_D62R was determined as 27.7 ratio.
The same measure, in the same setting: with B26 the figure was 29.9 ratio; with B27, 29.8 ratio; with B28, 22.9 ratio.
B29 had a variant/HC_D62R of 12.9 ratio.
Same read-out and setting: in the case of B30 it was 35.7 ratio.
The molecule B31 registered a variant/HC_D62R of 15.8 ratio.
For B32, the variant/HC_D62R stood at 28.4 ratio.
On the same count and under the same terms, in the case of B33 it was 29.5 ratio; in that of B34, 27.9 ratio.

For another assay, the target named is T2, mouse tissue factor pathway inhibitor (TFPI) (mouse, UniProt O54819 29-289, limits assumed).
T2 construct: bought; also called mTFPI; murine TFPI
T2 sequence (looked up): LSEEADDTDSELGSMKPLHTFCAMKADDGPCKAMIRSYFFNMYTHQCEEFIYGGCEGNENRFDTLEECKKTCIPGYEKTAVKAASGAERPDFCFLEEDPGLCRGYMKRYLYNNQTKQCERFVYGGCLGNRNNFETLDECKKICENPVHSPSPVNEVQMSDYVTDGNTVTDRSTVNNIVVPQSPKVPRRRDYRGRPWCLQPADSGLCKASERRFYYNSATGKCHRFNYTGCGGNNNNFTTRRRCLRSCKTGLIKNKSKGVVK
The assay can be described thus: competitive ELISA.
As to B1, the variant/HC_D62R is 16 ratio.
Take B2: the variant/HC_D62R worked out at 14.6 ratio.
B3 came in with a variant/HC_D62R of 26.7 ratio.
B4 yielded a variant/HC_D62R of 11.9 ratio.
In turn, B5 registered a variant/HC_D62R of 29.3 ratio.
Turning to B6, the variant/HC_D62R was determined as 16.5 ratio.
In the case of B7, the variant/HC_D62R stood at 32.3 ratio.
On to B8, for which the variant/HC_D62R came out at 30 ratio.
B9 returned a variant/HC_D62R of 28.1 ratio.
B10 yielded a variant/HC_D62R of 27.9 ratio.
On to B11, for which the variant/HC_D62R was 8.7 ratio.
The molecule B12 had a variant/HC_D62R of 29.3 ratio.
B13 yielded a variant/HC_D62R of 13.9 ratio.
B14 registered a variant/HC_D62R of 9.6 ratio.
B15 had a variant/HC_D62R of 18.4 ratio.
Take B16: the variant/HC_D62R amounted to 15.9 ratio.
Still for that read-out and setting: with B17 the figure was 20.3 ratio.
B18: the variant/HC_D62R amounted to 18.7 ratio.
The same measure, in the same setting: with B19 the figure was 23 ratio; with B20, 44.1 ratio; with B21, 20.6 ratio.
On to B22, for which the variant/HC_D62R was 24.6 ratio.
As for B23, the variant/HC_D62R was 12 ratio.
Consider B24, for which the variant/HC_D62R came to 15.2 ratio.
B25 yielded a variant/HC_D62R of 15.8 ratio.
On the same count and under the same terms, in the case of B26 it was 34.3 ratio; in that of B27, 43 ratio; in that of B28, 19.5 ratio.
Molecule B29 showed a variant/HC_D62R of 16.1 ratio.
As for B30, the variant/HC_D62R was 57.5 ratio.
B31 had a variant/HC_D62R of 11.2 ratio.
Still for that read-out and setting: with B32 the figure was 46.8 ratio; with B33, 19.7 ratio; with B34, 39.7 ratio.
